How the values were obtained:
HLA-A*23:01 [1] = assay: IEDB peptide-MHC binding, purified MHC/competitive/fluorescence; filed as Kd, often an IC50 or EC50 that approximates it; ≥ and ≤ were set here for values at or beyond the usual limits of such assays; settings: source organism: Salmonella enterica subsp. enterica serovar Typhimurium str. LT2
HLA-A*24:03 [2] = assay: as above
HLA-A*02:12 [3] = assay: as above; settings: source organism: Salmonella enterica subsp. enterica serovar Typhimurium str. LT2
HLA-A*29:02 [4] = assay: as above; settings: source organism: Salmonella enterica subsp. enterica serovar Typhimurium str. LT2
HLA-B*39:01 = assay: as above
HLA-A*26:01 = assay: as above
HLA-B*15:17 = assay: as above
HLA-A*03:01 [5] = assay: as above; settings: source organism: Salmonella enterica subsp. enterica serovar Typhimurium str. LT2
HLA-B*46:01 [6] = assay: as above
HLA-B*18:01 [7] = assay: as above
HLA-A*02:11 [8] = assay: as above
HLA-B*27:03 = assay: as above
HLA-B*51:01 = assay: as above
HLA-B*57:01 [9] = assay: as above
HLA-A*69:01 [10] = assay: as above
HLA-B*15:01 [11] = assay: as above; settings: source organism: Salmonella enterica subsp. enterica serovar Typhimurium str. LT2
HLA-A*02:19 [12] = assay: as above; settings: source organism: Salmonella enterica subsp. enterica serovar Typhimurium str. LT2
HLA-A*02:03 = assay: IEDB peptide-MHC binding, purified MHC/direct/fluorescence; filed as Kd, often an IC50 or EC50 that approximates it; ≥ and ≤ were set here for values at or beyond the usual limits of such assays
HLA-A*23:01 [13] = assay: as above
HLA-A*24:03 [14] = assay: as above; settings: source organism: Choclo virus
HLA-A*02:12 [15] = assay: as above
HLA-A*02:11 [16] = assay: as above
HLA-A*01:01 = assay: as above
HLA-A*02:16 = assay: as above
HLA-A*68:02 = assay: as above
HLA-A*02:19 [17] = assay: as above
HLA-A*02:01 [18] = assay: IEDB peptide-MHC binding, purified MHC/competitive/fluorescence; filed as Kd, often an IC50 or EC50 that approximates it; ≥ and ≤ were set here for values at or beyond the usual limits of such assays
HLA-A*29:02 [19] = assay: IEDB peptide-MHC binding, purified MHC/direct/fluorescence; filed as Kd, often an IC50 or EC50 that approximates it; ≥ and ≤ were set here for values at or beyond the usual limits of such assays; settings: source organism: Convict Creek 107 virus
HLA-A*03:01 [20] = assay: as above
HLA-B*40:01 = assay: as above; settings: source organism: Yellow fever virus 17D
HLA-A*11:01 = assay: as above; settings: source organism: Yellow fever virus 17D
HLA-A*02:01 [21] = assay: as above; settings: source organism: Yellow fever virus 17D
HLA-B*46:01 [22] = assay: as above; settings: source organism: Yellow fever virus 17D
HLA-B*18:01 [23] = assay: as above; settings: source organism: Yellow fever virus 17D
HLA-B*44:02 = assay: as above; settings: source organism: Yellow fever virus 17D
HLA-B*58:01 = assay: as above; settings: source organism: Yellow fever virus 17D
HLA-A*31:01 = assay: as above; settings: source organism: Yellow fever virus 17D
HLA-B*15:09 = assay: as above; settings: source organism: Yellow fever virus
HLA-B*27:05 = assay: as above; settings: source organism: Yellow fever virus 17D
HLA-B*57:01 [24] = assay: as above; settings: source organism: Yellow fever virus 17D
HLA-B*48:01 = assay: as above; settings: source organism: Yellow fever virus 17D
HLA-A*69:01 [25] = assay: as above; settings: source organism: Yellow fever virus 17D
HLA-B*15:01 [26] = assay: as above; settings: source organism: Yellow fever virus 17D
[27] = source organism: Salmonella enterica subsp. enterica serovar Typhimurium str. LT2
[28] = source organism: Convict Creek 107 virus
[29] = source organism: Orthohantavirus sinnombreense
[30] = source organism: Yellow fever virus 17D
[31] = source organism: Bradyrhizobium diazoefficiens

## ILNSDDEQA
HLA-A*23:01 [1]
  Kd: ≥ 20 µM
HLA-A*24:03 [2]; [27]
  Kd: ≥ 20 µM
HLA-A*02:12 [3]
  Kd: ≥ 20 µM
HLA-A*29:02 [4]
  Kd: 0.644 µM
HLA-B*39:01; [27]
  Kd: ≥ 20 µM
HLA-A*26:01; [27]
  Kd: ≥ 20 µM
HLA-B*15:17; [27]
  Kd: ≥ 20 µM
HLA-A*03:01 [5]
  Kd: ≥ 20 µM
HLA-B*46:01 [6]; [27]
  Kd: ≥ 20 µM
HLA-B*18:01 [7]; [27]
  Kd: ≥ 20 µM
HLA-A*02:11 [8]; [27]
  Kd: 0.142 µM
HLA-B*27:03; [27]
  Kd: ≥ 20 µM
HLA-B*51:01; [27]
  Kd: ≥ 20 µM
HLA-B*57:01 [9]; [27]
  Kd: ≥ 20 µM
HLA-A*69:01 [10]; [27]
  Kd: ≥ 20 µM
HLA-B*15:01 [11]
  Kd: ≥ 20 µM
HLA-A*02:19 [12]
  Kd: 1.63 µM

## KACDLAMCY
HLA-A*02:03; source organism: Choclo virus
  Kd: ≥ 20 µM
HLA-A*23:01 [13]; source organism: Choclo virus
  Kd: ≥ 20 µM
HLA-A*24:03 [14]
  Kd: ≥ 20 µM
HLA-A*02:12 [15]; source organism: Choclo virus
  Kd: ≥ 20 µM
HLA-A*02:11 [16]; source organism: Choclo virus
  Kd: ≥ 20 µM
HLA-A*01:01; source organism: Pergamino virus
  Kd: 3.28 µM
HLA-A*02:16; source organism: Choclo virus
  Kd: ≥ 20 µM
HLA-A*68:02; source organism: Choclo virus
  Kd: ≥ 20 µM
HLA-A*02:19 [17]; source organism: Choclo virus
  Kd: ≥ 20 µM
HLA-B*39:01; source organism: Choclo virus
  Kd: ≥ 20 µM
HLA-A*26:01; source organism: Choclo virus
  Kd: ≥ 20 µM
HLA-A*02:01 [18]; source organism: Choclo virus
  Kd: ≥ 20 µM
HLA-B*46:01 [6]; source organism: Choclo virus
  Kd: ≥ 20 µM
HLA-B*18:01 [7]; source organism: Choclo virus
  Kd: ≥ 20 µM
HLA-B*27:03; source organism: Choclo virus
  Kd: ≥ 20 µM
HLA-B*51:01; source organism: Choclo virus
  Kd: ≥ 20 µM
HLA-B*57:01 [9]; source organism: Choclo virus
  Kd: ≥ 20 µM
HLA-A*69:01 [10]; source organism: Choclo virus
  Kd: ≥ 20 µM

## LFPELECFF
HLA-A*02:03; [28]
  Kd: ≥ 20 µM
HLA-A*23:01 [13]; [28]
  Kd: ≥ 20 µM
HLA-A*02:12 [15]; [28]
  Kd: ≥ 20 µM
HLA-A*29:02 [19]
  Kd: ≥ 20 µM
HLA-A*03:01 [20]; [28]
  Kd: ≥ 20 µM
HLA-A*02:11 [16]; [28]
  Kd: ≥ 20 µM
HLA-A*02:16; [28]
  Kd: ≥ 20 µM
HLA-A*68:02; [28]
  Kd: ≥ 20 µM
HLA-A*02:19 [17]; [28]
  Kd: ≥ 20 µM
HLA-A*24:03 [2]; [29]
  Kd: 0.0008 µM
HLA-B*39:01; [29]
  Kd: ≥ 20 µM
HLA-A*26:01; [29]
  Kd: ≥ 20 µM
HLA-B*15:17; [29]
  Kd: ≥ 20 µM
HLA-A*02:01 [18]; [29]
  Kd: ≥ 20 µM
HLA-B*46:01 [6]; [29]
  Kd: ≥ 20 µM
HLA-B*18:01 [7]; [29]
  Kd: ≥ 20 µM
HLA-B*27:03; [29]
  Kd: ≥ 20 µM
HLA-B*51:01; [29]
  Kd: ≥ 20 µM
HLA-B*57:01 [9]; [29]
  Kd: ≥ 20 µM
HLA-A*69:01 [10]; [29]
  Kd: ≥ 20 µM

## VRGGMVAPL
HLA-B*40:01
  Kd: ≥ 20 µM
HLA-A*11:01
  Kd: ≥ 20 µM
HLA-A*03:01 [20]; [30]
  Kd: ≥ 20 µM
HLA-A*02:01 [21]
  Kd: ≥ 20 µM
HLA-B*46:01 [22]
  Kd: ≥ 20 µM
HLA-B*18:01 [23]
  Kd: ≥ 20 µM
HLA-B*44:02
  Kd: ≥ 20 µM
HLA-A*01:01; [30]
  Kd: ≥ 20 µM
HLA-B*58:01
  Kd: ≥ 20 µM
HLA-A*31:01
  Kd: ≥ 20 µM
HLA-B*15:09
  Kd: ≥ 20 µM
HLA-B*27:05
  Kd: ≥ 20 µM
HLA-B*57:01 [24]
  Kd: ≥ 20 µM
HLA-B*48:01
  Kd: ≥ 20 µM
HLA-A*69:01 [25]
  Kd: ≥ 20 µM
HLA-B*15:01 [26]
  Kd: ≥ 20 µM

## VTPGPHAQI
HLA-A*02:01 [18]; [31]
  Kd: 1.05 µM
HLA-A*02:11 [8]; [31]
  Kd: 0.0704 µM
